{"source": "the RNAGym collection of RNA variant scans (doi:10.1073/pnas.2313332121)", "parents": {"B1": {"name": "TPR 5TU (parent)", "chain": "GGAUCUUCUCGAUCUAACAAAAAAGACAAAUCUGCCACAAAGCUUGAGAGCAUCUUCGGAUGCAGAGGCGGCAGCCUUCGGUGGCGCGAUAGCGCCAACGUUCUCAACUAUGACACGCAAAACGCGUGCUCCGUUGAAUGGAGUUUAUCAUG"}}, "note": "Fewer inactive variants are shown than the library holds.", "data": [{"variants_of": "B1", "test": "polymerase ribozyme fitness, log enrichment relative to wild type (log ratio); higher = more active; in vitro selection for triplet polymerase activity", "in_short": "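Fitness measures genotype enrichment against wild-type enrichment on a logarithmic scale, with inverse-variance-weighted averaging of replicates. The logarithm is base 2, and genotypes were kept only with ≥10 input reads and ≥1 read per output in Illumina sequencing. The sequenced libraries came from one triplicate in vitro selection round, including frozen incubation at −7 °C, of PCR-built, transcribed mutant libraries of each subunit of a heterodimeric triplet polymerase ribozyme.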", "values": [{"variant": "G94C A97G A121U A122U", "polymerase ribozyme fitness (log ratio)": -0.691}, {"variant": "C96A U135C", "polymerase ribozyme fitness (log ratio)": -1.91}, {"variant": "C93A A142U C149A", "polymerase ribozyme fitness (log ratio)": "≤ -4.2"}, {"variant": "C93A U146C", "polymerase ribozyme fitness (log ratio)": -2.18}, {"variant": "C93A U146G", "polymerase ribozyme fitness (log ratio)": -3.27}, {"variant": "C95U A142G", "polymerase ribozyme fitness (log ratio)": -1.66}, {"variant": "C95U A142C", "polymerase ribozyme fitness (log ratio)": -1.54}, {"variant": "C93U C131A", "polymerase ribozyme fitness (log ratio)": -2.97}, {"variant": "C93A G126A A137G", "polymerase ribozyme fitness (log ratio)": -2.09}, {"variant": "G94U A142U", "polymerase ribozyme fitness (log ratio)": -1.73}, {"variant": "G94U G141C", "polymerase ribozyme fitness (log ratio)": -1.45}, {"variant": "C93G C149U", "polymerase ribozyme fitness (log ratio)": -4.08}, {"variant": "C93U U148A", "polymerase ribozyme fitness (log ratio)": -3.85}, {"variant": "C95U A107G", "polymerase ribozyme fitness (log ratio)": -4.16}, {"variant": "C93A U134C", "polymerase ribozyme fitness (log ratio)": -1.59}, {"variant": "C95U A142U U145G", "polymerase ribozyme fitness (log ratio)": -2.47}, {"variant": "G92U C116U", "polymerase ribozyme fitness (log ratio)": 0.0946}, {"variant": "C93A A106G", "polymerase ribozyme fitness (log ratio)": -1.9}, {"variant": "C96A G136A", "polymerase ribozyme fitness (log ratio)": -0.205}, {"variant": "C93G A97G G140C A147U C149G", "polymerase ribozyme fitness (log ratio)": "≤ -4.2"}, {"variant": "C93A U102C C105A C125G G143U U144A", "polymerase ribozyme fitness (log ratio)": "≤ -4.2"}, {"variant": "G94C C116U", "polymerase ribozyme fitness (log ratio)": -0.0318}, {"variant": "C93A A142U", "polymerase ribozyme fitness (log ratio)": -3.16}, {"variant": "C93A A142C", "polymerase ribozyme fitness (log ratio)": -1.78}, {"variant": "C93A A142G", "polymerase ribozyme fitness (log ratio)": -2.77}, {"variant": "C93A U104G", "polymerase ribozyme fitness (log ratio)": -2.89}, {"variant": "G94C G117U", "polymerase ribozyme fitness (log ratio)": 0.0157}, {"variant": "C95G C96G", "polymerase ribozyme fitness (log ratio)": -2.17}, {"variant": "C95G C96U", "polymerase ribozyme fitness (log ratio)": -2.05}, {"variant": "G94C C131U", "polymerase ribozyme fitness (log ratio)": -1.79}, {"variant": "G94A C105G C116A G141C", "polymerase ribozyme fitness (log ratio)": "≤ -4.2"}, {"variant": "C96A U151C", "polymerase ribozyme fitness (log ratio)": -3.24}, {"variant": "G94C A142C", "polymerase ribozyme fitness (log ratio)": -1.37}, {"variant": "G94C A113G", "polymerase ribozyme fitness (log ratio)": -2.8}, {"variant": "G92U C123A", "polymerase ribozyme fitness (log ratio)": -0.758}, {"variant": "G94U A97G U127A A150U", "polymerase ribozyme fitness (log ratio)": "≤ -4.2"}, {"variant": "C96A A98U", "polymerase ribozyme fitness (log ratio)": -0.335}, {"variant": "G94A G152C", "polymerase ribozyme fitness (log ratio)": -3.08}, {"variant": "G94A A119U", "polymerase ribozyme fitness (log ratio)": -2.21}, {"variant": "G92U G133U", "polymerase ribozyme fitness (log ratio)": -3.41}, {"variant": "C95U U102G", "polymerase ribozyme fitness (log ratio)": -1.19}, {"variant": "C95U U102C", "polymerase ribozyme fitness (log ratio)": -1.06}, {"variant": "C93U G133C", "polymerase ribozyme fitness (log ratio)": -2.76}, {"variant": "C95U C114U", "polymerase ribozyme fitness (log ratio)": -1.72}, {"variant": "C96G A97G G143U", "polymerase ribozyme fitness (log ratio)": -3.14}, {"variant": "C93G C108U", "polymerase ribozyme fitness (log ratio)": -3.94}, {"variant": "C93G C108G", "polymerase ribozyme fitness (log ratio)": -3.9}, {"variant": "C95G A97C", "polymerase ribozyme fitness (log ratio)": -0.47}, {"variant": "C95U U101G C105U C125U A142U", "polymerase ribozyme fitness (log ratio)": "≤ -4.2"}, {"variant": "C96G A98U C103G A113C G143A", "polymerase ribozyme fitness (log ratio)": "≤ -4.2"}, {"variant": "C95U C99G U104G A110G C116A A142U", "polymerase ribozyme fitness (log ratio)": "≤ -4.2"}, {"variant": "C93A A107U G126C A150G", "polymerase ribozyme fitness (log ratio)": "≤ -4.2"}, {"variant": "G94C A107G", "polymerase ribozyme fitness (log ratio)": -3.89}, {"variant": "G92U A113C", "polymerase ribozyme fitness (log ratio)": -2.78}, {"variant": "C93A A97U G128A", "polymerase ribozyme fitness (log ratio)": "≤ -4.2"}, {"variant": "C96A U148A", "polymerase ribozyme fitness (log ratio)": -3.15}, {"variant": "C96G A98U U144G", "polymerase ribozyme fitness (log ratio)": -0.0548}, {"variant": "G94U U101G A120U A142U", "polymerase ribozyme fitness (log ratio)": -2.08}, {"variant": "C93G C105A A107G G141U", "polymerase ribozyme fitness (log ratio)": "≤ -4.2"}, {"variant": "G94A G124A A150U", "polymerase ribozyme fitness (log ratio)": 0.987}, {"variant": "C93U C105U", "polymerase ribozyme fitness (log ratio)": -2.55}, {"variant": "C93A G100C C118G A138G", "polymerase ribozyme fitness (log ratio)": "≤ -4.2"}, {"variant": "C93G A119C", "polymerase ribozyme fitness (log ratio)": -3.47}, {"variant": "G94A C123G U146G", "polymerase ribozyme fitness (log ratio)": -1.05}, {"variant": "C93A U101G", "polymerase ribozyme fitness (log ratio)": -3.29}, {"variant": "C93U C125A", "polymerase ribozyme fitness (log ratio)": -2.69}, {"variant": "C93U C125G", "polymerase ribozyme fitness (log ratio)": -1.79}, {"variant": "C93A U127A G133U G140U", "polymerase ribozyme fitness (log ratio)": "≤ -4.2"}, {"variant": "C93G A98U", "polymerase ribozyme fitness (log ratio)": -2.82}, {"variant": "C93G A98C", "polymerase ribozyme fitness (log ratio)": -2.81}, {"variant": "G94U A147U", "polymerase ribozyme fitness (log ratio)": 0.0631}, {"variant": "G92U U101G", "polymerase ribozyme fitness (log ratio)": 0.0893}, {"variant": "C95A A120G A138G", "polymerase ribozyme fitness (log ratio)": -2.96}, {"variant": "G94C C105A", "polymerase ribozyme fitness (log ratio)": -1.22}, {"variant": "C93G G141C", "polymerase ribozyme fitness (log ratio)": -3.36}, {"variant": "C93U C149G", "polymerase ribozyme fitness (log ratio)": -4.08}, {"variant": "C93U C149U", "polymerase ribozyme fitness (log ratio)": -1.57}, {"variant": "C93A G94A C123U C149U", "polymerase ribozyme fitness (log ratio)": "≤ -4.2"}, {"variant": "C93U G94U A107C", "polymerase ribozyme fitness (log ratio)": "≤ -4.2"}, {"variant": "G92U U146A", "polymerase ribozyme fitness (log ratio)": -0.393}, {"variant": "C96G A97U", "polymerase ribozyme fitness (log ratio)": -1.83}, {"variant": "C96G A97G", "polymerase ribozyme fitness (log ratio)": -2.61}, {"variant": "C93U C118U", "polymerase ribozyme fitness (log ratio)": -1.84}, {"variant": "G92U C96U A97U A115U A121U", "polymerase ribozyme fitness (log ratio)": -2.82}]}]}
